Assay [1] deals with T1, human PlGF-1 (as used in Example 13; source not specified) (human) (UniProt P49763).
T1 sequence: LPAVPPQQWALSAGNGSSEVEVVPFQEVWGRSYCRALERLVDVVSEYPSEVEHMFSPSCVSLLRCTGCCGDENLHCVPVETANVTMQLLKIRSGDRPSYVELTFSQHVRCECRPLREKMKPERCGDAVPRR
The assay can be described thus: … PlGF-1 assay; added sFlt-1 1,181 pM; 27.1 pM PlGF-1 without sFlt-1.

The target of assay [2] is T1, human PlGF-1 (as used in Example 13; source not specified) (human). As to the kind of experiment: … PlGF-1 assay; added sFlt-1 788 pM; 6.8 pM PlGF-1 without sFlt-1.
Assay [3] has the same target. As to the kind of experiment: … PlGF-1 assay; added sFlt-1 1,181 pM; 40.5 pM PlGF-1 without sFlt-1.
The target is the same in assay [4]. The assay can be described thus: … PlGF-1 assay; added sFlt-1 389 pM; 3.6 pM PlGF-1 without sFlt-1.
Assay [5] shares this target. As to the kind of experiment: … PlGF-1 assay; added sFlt-1 186 pM; 27.1 pM PlGF-1 without sFlt-1.
Assay [6] shares this target. As to the kind of experiment: … PlGF-1 assay; added sFlt-1 788 pM; 27.1 pM PlGF-1 without sFlt-1.
For assay [7] the target is unchanged. The assay can be described thus: … PlGF-1 assay; added sFlt-1 389 pM; 13.3 pM PlGF-1 without sFlt-1.
Assay [8] shares this target. As to the kind of experiment: … PlGF-1 assay; added sFlt-1 93 pM; 6.8 pM PlGF-1 without sFlt-1.
Assay [9] shares this target. As to the kind of experiment: … PlGF-1 assay after 16 h incubation of PlGF-1 with sFlt-1 up to 12 nM (data not shown).
For assay [10] the target is unchanged. As to the kind of experiment: … PlGF-1 assay after 16 h incubation of PlGF-1 with sFlt-1 (data not shown).
Assay [11] shares this target. As to the kind of experiment: … PlGF-1 assay; added sFlt-1 93 pM; 27.1 pM PlGF-1 without sFlt-1.
Assay [12] has the same target. As to the kind of experiment: … PlGF-1 assay; added sFlt-1 1,181 pM; 3.6 pM PlGF-1 without sFlt-1.
Assay [13] shares this target. The assay can be described thus: … PlGF-1 assay; added sFlt-1 788 pM; 13.3 pM PlGF-1 without sFlt-1.
Assay [14] shares this target. The assay can be described thus: … PlGF-1 assay; added sFlt-1 93 pM; 13.3 pM PlGF-1 without sFlt-1.
For assay [15] the target is unchanged. The assay can be described thus: … PlGF-1 assay; added sFlt-1 389 pM; 6.8 pM PlGF-1 without sFlt-1.
Assay [16] shares this target. The assay can be described thus: … PlGF-1 assay; added sFlt-1 788 pM; 3.6 pM PlGF-1 without sFlt-1.
For assay [17] the target is unchanged. The assay can be described thus: … PlGF-1 assay; added sFlt-1 389 pM; 40.5 pM PlGF-1 without sFlt-1.
For assay [18] the target is unchanged. The assay can be described thus: … PlGF-1 assay; added sFlt-1 1,181 pM; 13.3 pM PlGF-1 without sFlt-1.
For assay [19] the target is unchanged. The assay can be described thus: … PlGF-1 assay; added sFlt-1 93 pM; 3.6 pM PlGF-1 without sFlt-1.
Assay [20] shares this target. The assay can be described thus: … PlGF-1 assay; added sFlt-1 186 pM; 13.3 pM PlGF-1 without sFlt-1.
The target is the same in assay [21]. The assay can be described thus: … PlGF-1 assay; added sFlt-1 93 pM; 40.5 pM PlGF-1 without sFlt-1.
Assay [22] shares this target. As to the kind of experiment: … PlGF-1 assay; added sFlt-1 186 pM; 3.6 pM PlGF-1 without sFlt-1.
Assay [23] shares this target. The assay can be described thus: … PlGF-1 assay; added sFlt-1 186 pM; 6.8 pM PlGF-1 without sFlt-1.
Assay [24] shares this target. The assay can be described thus: … PlGF-1 assay; added sFlt-1 1,181 pM; 6.8 pM PlGF-1 without sFlt-1.
For assay [25] the target is unchanged. The assay can be described thus: … PlGF-1 assay; added sFlt-1 389 pM; 27.1 pM PlGF-1 without sFlt-1.
For assay [26] the target is unchanged. As to the kind of experiment: … PlGF-1 assay; added sFlt-1 788 pM; 40.5 pM PlGF-1 without sFlt-1.
The target is the same in assay [27]. The assay can be described thus: … PlGF-1 assay; added sFlt-1 186 pM; 40.5 pM PlGF-1 without sFlt-1.
For assay [28], the target named is recombinant human PlGF-1 (comprising amino acids 1-131) expressed in E. coli (R&D Systems) (human) (UniProt P49763). As to the kind of experiment: EIA of 24 well cultures, antibody captured on anti-mouse IgG Fc, biotin labeled human PlGF-1.
For assay [29] the target is unchanged. As to the kind of experiment: EIA, supernatant antibody captured on anti-mouse IgG Fc, biotin labeled human PlGF-1 at 1500 pg/mL.
Assay [30] shares this target. The assay can be described thus: EIA of clone supernatants, antibody captured on anti-mouse IgG Fc, biotin labeled human PlGF-1.

B1: sFlt-1 (as used in Example 13; preparation not specified) (receptor, not shown: a dimerising Fc or GST; small tags and cut ends)
chain: SKLKDPELSLKGTQHIMQAGQTLHLQCRGEAAHKWSLPEMVSKESERLSITKSACGRNGKQFCSTLTLNTAQANHTGFYSCKYLAVPTSKKKETESAIYIFISDTGRPFVEMYSEIPEIIHMTEGRELVIPCRVTSPNITVTLKKFPLDTLIPDGKRIIWDSRKGFIISNATYKEIGLLTCEATVNGHLYKTNYLTHRQTNTIIDVQISTPRPVKLLRGHTLVLNCTATTPLNTRVQMTWSYPDEKNKRASVRRRIDQSNSHANIFYSVLTIDKMQNKDKGLYTCRVRSGPSFKSVNTSVHI
modifications: glycosylated; the chimera is dimerised through its Fc, if that preparation was the one used
On to B1, for which the Measured Human PlGF-1 in assay [1] amounted to 5.4 pM; in [2] it was 1.9 pM; in [3], 7.8 pM; in [4], 1.2 pM; in assay [5], 10.6 pM; in assay [6], 6.1 pM. The Measured Human PlGF-1 in [7] stood at 3.8 pM; in assay [8], 3.1 pM; in assay [11] it was 15.6 pM; in [12], 1.3 pM; in assay [13], 3.3 pM; in assay [14], 6.7 pM. Besides, the Measured Human PlGF-1 in [15] amounted to 2 pM; in assay [16], 1.2 pM; in [17] it was 12.2 pM; in assay [18], 3 pM; in [19], 1.5 pM; in [20], 4.9 pM. In addition, the Measured Human PlGF-1 in assay [21] turned out to be 25.9 pM; in assay [22], 1.2 pM; in assay [23], 2.4 pM; in assay [24], 1.9 pM; in [25], 7.5 pM; in [26] it was 9.2 pM. For the same molecule, the Measured Human PlGF-1 in [27] worked out at 17.8 pM. Besides, the percent change in measured PlGF-1 in assay [1] was -80%; in assay [2], -72%; in [14] it was -49%; in assay [15], -70%; in assay [18], -77%; in [20] it was -63%. Moreover, the percent change in measured PlGF-1 in [21] is -36%; in assay [22], -65%; in assay [27], -56%. In addition, the figures for the percent change in measured PlGF-1 versus no sFlt-1 in assay [3], in assay [11] and in assay [16] were -81%, -42% and -66%, respectively. In addition, the percent change in measured PlGF-1 versus without sFlt-1 is -67% in assay [4] and -64% in [12]. In addition, the percent change in measured PlGF-1 vs. no sFlt-1 in [5] is -61%; in assay [7] it was -72%; in assay [13], -76%; in [17], -70%; in [19], -58%; in assay [23] it was -65%. The percent change in measured PlGF-1 vs. no sFlt-1 in assay [25] is -72%. Moreover, the values for the percent change in measured PlGF-1 vs. without sFlt-1 in [6], in [24] and in assay [26] were -78%, -72% and -77%, respectively. Moreover, in assay [8], the percentage of inhibition is -55%. Further, the % inhibition of the human PlGF-1 assay in assay [9] is 90%. The molecule further came in with a molar excess of sFlt-1 for 90% maximum inhibition in assay [10] of 40 fold.

B2: anti-human PlGF-1 monoclonal antibody from clone 1-255-189 (antibody, V domains shown)
VH: QVHLQQSGAELMKPGASVKISCKATGYTFSSYWIEWVKQRPGHGLEWIGEILPGSVSNNFNEKFKDKATLTADPSSNTAYIQVSSLTSEDSAVYYCARSTGFYYGGNYFDHWGQGTTLAVSS
VL: DVVMTQTPLSLPVSPGDQASISCRSSQSLVHSNGHTYLHWYLQKPGQSPKLLIYKVSNRFSGVPDRVSGSGSGTDFTLKISRVEAEDLGVYFCSQSTHVPPTFGGGTKLEIKR
As for B2, the EIA signal relative to background (fold over background) is > 3 in assay [28], 3 in assay [29] and > 3 in [30].

B3: anti-human PlGF-1 monoclonal antibody from clone 2-826-127 (antibody, V domains shown)
VH: QVQLKQSGPGLVQPSQSLSITCTVSGFSLTTYGIHWVRQSPGKGLEWLGVMWSGGDTDYDAAFISRLSISKDNSKSQVFFKMNSLQANDTGIYYCARYRFYGMDYWGQGTSVTVSS
VL: AIQMTQSSSSFSVSLGDRVTITCKASEDIYNRFAWYQQKPGNAPRLLISGAASLEAGVPSRFSGSGSGQDYTLSITSLQTEDVATYYCQQYWSTPWTFGGGTKLEIKR
On to B3, for which the EIA signal relative to background (fold over background) in [28], in assay [29] and in assay [30] was > 3 in each case.

(Values after US20100015637A1 (AbbVie / Abbott, published 2010).)
